The results in this text go back to article PMC13279940.

The test addresses Pseudomonas aeruginosa QatC with C-terminal 6xHis tag (Pseudomonas aeruginosa). As to the kind of experiment: mass photometry; Refeyn TwoMP; purified protein diluted to 200 nM in gel filtration buffer (20 mM HEPES-KOH pH 7.5, 250 mM KCl, 1 mM TCEP), 1 uL mixed into a 16 uL drop; QatA in the absence of DNA. In general terms: In gel filtration, larger molecules generally elute earlier.

For “Pseudomonas aeruginosa QatB (natural protein)”, the stoichiometry N – broadly, the number of molecules, sites or subunits per partner or assembly – worked out at 1.
